Measured values published in paper PMC10817169, “The universal suppressor mutation restores membrane budding defects in the HSV-1 nuclear egress complex by stabilizing the oligomeric lattice” (PLOS Pathogens, 2024).

Target: T1, UL31 1-306 R229L_(UL31) (HSV-1, UniProt P10215 1-306, R229L)
T1 construct: also called SUP_(UL31); UL31 chain of NEC220-SUP_(UL31)
T1 sequence: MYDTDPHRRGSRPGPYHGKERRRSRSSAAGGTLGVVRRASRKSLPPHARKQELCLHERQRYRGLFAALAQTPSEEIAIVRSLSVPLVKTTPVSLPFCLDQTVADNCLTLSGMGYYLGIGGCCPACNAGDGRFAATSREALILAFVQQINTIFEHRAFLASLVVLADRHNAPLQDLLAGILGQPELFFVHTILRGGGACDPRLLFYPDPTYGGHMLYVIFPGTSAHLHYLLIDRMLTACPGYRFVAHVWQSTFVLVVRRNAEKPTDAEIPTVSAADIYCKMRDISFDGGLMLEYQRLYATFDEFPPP
Experiment: cryo-EM structure; cryoET with sub-tomographic averaging of membrane-bound coats; 1 mg/mL NEC with 400 and 800 nm LUVs (POPC:POPS:POPA = 3:1:1), 30 min on ice
Conditions: both partners purified

B1: UL34 1-220 D35A_(UL34)/E37A_(UL34) (domain or fragment)
chain: MAGLGKPYTGHPGDAFEGLVQRIRLIVPSTLRGGAGAAGPYSPSSLPSRCAFQFHGHDGSDESFPIEYVLRLMNDWAEVPCNPYLRIQNTGVSVLFQGFFHRPHNAPGGAITPERTNVILGSTETTGLSLGDLDTIKGRLGLDARPMMASMWISCFVRMPRVQLAFRFMGPEDAGRTRRILCRAAEQAITRRRRTRRSREAYGAEAGLGVAGTGFRARGD
notes: also called DN_(UL34); UL34 chain of NEC220-DN_(UL34)/SUP_(UL31); not shown: GST, N-terminal, cleaved
B1: binds.
